Target: T1, LGP2 regulatory domain (LGP2 RD, residues 537–678), wild type (human, UniProt Q96C10 537-678, biotinylated (biotin added at 3:1 molar ratio) for biolayer interferometry)
T1 construct: also called LGP2 RD WT; WT
T1 sequence (looked up): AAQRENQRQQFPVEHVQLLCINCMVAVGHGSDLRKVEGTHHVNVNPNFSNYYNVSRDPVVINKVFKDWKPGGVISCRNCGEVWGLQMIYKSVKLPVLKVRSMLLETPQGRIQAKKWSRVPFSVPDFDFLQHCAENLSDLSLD
Test: BLI
Conditions: both partners purified

B1: TBEV NS5 protein, purified (natural protein)
chain: GGSEGDTLGDLWKRKLNGCTKEEFFAYRRTGILETERDKARELLKRGETNMGLAVSRGTAKLAWLEERGYATLKGEVVDLGCGRGGWSYYAASRPAVMSVKACAIAGKGHETPKMVTSLGWNLIKFRAGMDVFSMQPHRADTIMCDIGESNPDAVVEGERTRKVILLMEQWKNRNPTATCVFKALAPYRPEVTEALHRFQLQWGGGLVRTPFSRNSTHEMYYSTAITGNIVNSVNIQSRKLLARFGDQRGPTRVPELDLGVGTRCVVLAEDKVKEKDVQERISALREQYGETWHMDREHPYRTWQYWAATACANRVGGALINGVVKLLSWPWNAREDVVRMAMTDTTAFGQQRVFKEKVDTKAQEPQPGTKVIMRAVNDWILERLARKSKPRMCSREEFIAKVKSNAALGAWSDEQNRWSSAKEAVEDPAFWQLVDEERERHLAGRCAHCVYNMMGKREKKLGEFGVAKGSRAIWYMWLGSRFLEFEALGFLNEDHWASRGSSGSGVEGISLNYLGWHLKGLSTLEGGLFYADDTAGWDTKVTNADLEDEEQLLRYMEGEHKQLAATIMQKAYHAKVVKVARPSRDGGCIMDVITRRDQRGSGQVVTYALNTLTNIKVQLIRMMEGEGVIEASDAHNPRLLRVERWLRDHGEERLGRMLVSGDDCVVRPVDDRFSGALYFLNDMAKTRKDIGEWDHSVGFSNWEEVPFCSHHFHELVMKDGRTLIVPCRDQDELVGRARVSPGCGRSVRETACLSKAYGQMWLLSYFHRRDLRTLGLAICSAVPVDWVPAGRTTWSIHASGAWMTTEDMLDVWNRVWILDNPFMHSKEKIAEWRDVPYLPKSHDMLCSSLVGRKERAEWAKNIWGAVEKVRKMIGQEKFKDYLSCMDRHDLHWESKLESSII
Q: How did the Kd turn out when B1 was run?
A: The Kd was 1200 ± 800 nM.

— publication PMC10501626 (PLOS Pathogens, 2023)
